Laboratory results as given in article PMC3902928, “Nuclear ubiquitination by FBXL5 modulates Snail1 DNA binding and stability” (Nucleic Acids Research, 2013).

T1: 3xFlag-FBXL5 (baculovirus) (UniProt Q9UKA1 1-691)
T1 construct: FBXL5; pFastBac1 3xFlag-FBXL5 provided by Dr Bruick; source: also co-infected with 6xHis-Skp1, HA-Cullin1 and Rbx1 for the SCF^FBXL5 complex; not shown: 3xFlag, N-terminal, kept
T1 sequence (looked up): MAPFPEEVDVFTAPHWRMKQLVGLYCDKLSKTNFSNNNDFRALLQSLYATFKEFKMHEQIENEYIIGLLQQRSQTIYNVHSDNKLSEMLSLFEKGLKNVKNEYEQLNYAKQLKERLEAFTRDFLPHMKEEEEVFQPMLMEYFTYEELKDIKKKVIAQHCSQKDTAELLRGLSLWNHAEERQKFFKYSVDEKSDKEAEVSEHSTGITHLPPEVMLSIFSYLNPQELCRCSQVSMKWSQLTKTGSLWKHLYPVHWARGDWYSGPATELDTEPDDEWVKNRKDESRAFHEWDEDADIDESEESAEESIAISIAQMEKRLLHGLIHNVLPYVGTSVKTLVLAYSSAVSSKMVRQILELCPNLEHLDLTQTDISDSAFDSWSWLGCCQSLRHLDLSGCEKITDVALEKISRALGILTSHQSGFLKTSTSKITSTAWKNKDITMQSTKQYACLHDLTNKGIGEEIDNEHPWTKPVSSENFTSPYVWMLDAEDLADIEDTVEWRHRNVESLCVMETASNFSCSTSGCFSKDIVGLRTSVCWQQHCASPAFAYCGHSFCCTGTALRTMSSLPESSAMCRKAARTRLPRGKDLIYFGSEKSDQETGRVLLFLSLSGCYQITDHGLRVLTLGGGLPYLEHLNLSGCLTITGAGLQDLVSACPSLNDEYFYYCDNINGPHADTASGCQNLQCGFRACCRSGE


Columns and labels:
GST-FBXL5 (pGEX-6P-1) = GST-FBXL5 (pGEX-6P-1) (UniProt Q9UKA1); assay: pull-down; GST or GST-FBXL5 protein on glutathione-sepharose with extracts from transfected HEK293T cells; western blot
[1] = biological target: T1, 3xFlag-FBXL5 (baculovirus); assay: pull-down; 0.2 pmol 3xFlag-FBXL5 incubated with 2.5 pmol GST or GST-Snail1 as baits on glutathione-sepharose; western blot; settings: both partners purified

Molecule	decrease of binding against the full C-terminal domain (GST-FBXL5 (pGEX-6P-1))	binding result [1]
GFP-Snail1CT ΔZnF1-2 (from UniProt Q02085 209-264) (domain or fragment)	80%	
GFP-Snail1CT ΔZnF1 (from UniProt Q02085 181-264) (domain or fragment)	45%	
GFP-Snail1CT ΔZnF3-4 (from UniProt Q02085 152-208) (domain or fragment)	> 50%	
GST-Snail1-HA (baculovirus) (natural protein, UniProt Q02085 1-264, looked up, Snail1; insert subcloned from pcDNA3-Snail1-HA through pEBG-2T into pFastBac1; source: Sf9, baculovirus-infected, purified; not shown: GST, N-terminal, kept) MPRSFLVRKPSDPRRKPNYSELQDACVEFTFQQPYDQAHLLAAIPPPEVLNPAASLPTLIWDSLLVPQVRPVAWATLPLRESPKAVELTSLSDEDSGKSSQPPSPPSPAPSSFSSTSASSLEAEAFIAFPGLGQLPKQLARLSVAKDPQSRKIFNCKYCNKEYLSLGALKMHIRSHTLPCVCTTCGKAFSRPWLLQGHVRTHTGEKPFSCSHCNRAFADRSNLRAHLQTHSDVKRYQCQACARTFSRMSLLHKHQESGCSGGPR		binds
